This is an account of results in PMC4627068 (Nucleic Acids Research, 2015).

For data set [1], the target named is β' subunit of Bacillus subtilis RNAP-σ^A (Bacillus subtilis, UniProt P37871 1-1199). Description: far-Western, overlay or dot blot.
Data set [2] concerns the molecule itself. Description: far-Western, overlay or dot blot.

Sequence of β' subunit of Bacillus subtilis RNAP-σ^A (P37871 whole entry): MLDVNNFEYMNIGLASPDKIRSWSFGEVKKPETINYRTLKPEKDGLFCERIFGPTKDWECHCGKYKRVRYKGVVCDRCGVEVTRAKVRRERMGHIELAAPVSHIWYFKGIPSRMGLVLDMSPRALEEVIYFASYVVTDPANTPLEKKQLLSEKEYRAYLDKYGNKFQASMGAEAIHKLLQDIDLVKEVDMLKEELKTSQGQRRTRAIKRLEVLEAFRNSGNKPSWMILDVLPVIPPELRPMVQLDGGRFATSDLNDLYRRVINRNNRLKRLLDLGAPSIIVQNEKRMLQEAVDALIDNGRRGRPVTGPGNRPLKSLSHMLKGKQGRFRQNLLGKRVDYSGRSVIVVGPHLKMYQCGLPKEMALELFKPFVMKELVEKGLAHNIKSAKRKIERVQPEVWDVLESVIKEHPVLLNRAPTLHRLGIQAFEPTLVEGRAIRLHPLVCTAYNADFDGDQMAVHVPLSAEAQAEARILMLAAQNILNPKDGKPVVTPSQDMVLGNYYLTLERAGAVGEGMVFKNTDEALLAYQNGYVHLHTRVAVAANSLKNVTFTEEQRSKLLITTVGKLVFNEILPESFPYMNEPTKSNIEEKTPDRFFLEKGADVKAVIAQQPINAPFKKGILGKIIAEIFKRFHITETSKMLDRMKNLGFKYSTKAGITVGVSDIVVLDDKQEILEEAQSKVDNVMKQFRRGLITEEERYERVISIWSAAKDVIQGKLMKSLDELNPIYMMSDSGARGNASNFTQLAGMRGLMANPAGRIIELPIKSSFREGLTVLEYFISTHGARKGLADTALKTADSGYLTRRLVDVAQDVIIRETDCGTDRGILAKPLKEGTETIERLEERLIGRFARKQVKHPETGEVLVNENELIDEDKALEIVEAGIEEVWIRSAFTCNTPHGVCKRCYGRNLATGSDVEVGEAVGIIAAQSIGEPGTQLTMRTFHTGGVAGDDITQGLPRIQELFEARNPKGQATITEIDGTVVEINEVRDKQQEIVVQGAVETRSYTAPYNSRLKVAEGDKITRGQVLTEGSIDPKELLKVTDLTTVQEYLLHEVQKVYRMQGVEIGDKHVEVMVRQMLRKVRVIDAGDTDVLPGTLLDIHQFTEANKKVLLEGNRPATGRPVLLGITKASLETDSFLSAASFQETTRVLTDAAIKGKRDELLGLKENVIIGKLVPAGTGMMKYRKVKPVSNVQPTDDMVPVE

B1: ω2 (homodimeric form of the plasmid pSM19035 ω protein) (natural protein, Streptococcus pyogenes, UniProt Q57468 1-71, looked up)
chain: MIVGNLGAQKAKRNDTPISAKKDIMGDKTVRVRADLHHIIKIETAKNGGNVKEVMDQALEEYIRKYLPDKL
For the molecule B1, the binding result in data set [1] and in data set [2] was “binds” throughout.
